{"source": "patent US9932382B2", "about": "“Kv2.1 channel-derived peptides and methods of use” (University of Pittsburgh—Of the Commonwealth System of …, priority 2014, dated 2018)", "system": "Kv2.1 K^+ currents", "assay": "Whole-cell patch clamp K+ currents in cortical neurons after DTDP", "format": "cell-based, rat", "procedure": "For electrophysiological experiments, mixed cortical neuronal/glial cultures were prepared from embryonic day 16 (E16) Sprague-Dawley rats (Charles River Laboratories, Wilmington, Mass., USA). Donor rats were euthanized by gradual CO2 exposure. Cortices were dissociated with trypsin, and the resultant cell suspension, adjusted to 670,000 cells per well, was plated on glass coverslips in 6-well plates as described previously (Hartnett et al., J Neurochem 68, 1836-1845, 1997). Non-neuronal cell proliferation was inhibited after two weeks in culture with 1-2 μM cytosine arabinoside, and cultures utilized at three to four weeks in vitro. For neuronal transfection, cells were treated for five hours in serum-free medium with 2 μL LIPOFECTAMINE™ 2000 (Invitrogen, Carlsbad, Calif.), 50 μL Optimem (GIBCO, Grand Island, N.Y.), and 1.5 μg DNA per well. […]\nCurrent recordings were performed on eGFP-positive co-transfected neurons or CHO cells using the whole-cell patch clamp configuration technique as described previously (McLaughlin et al., J Neurosci 21, 3303-3311, 2001). […] To determine current density values, steady-state current amplitudes were measured 180 msec after the initiation of the +10 mV step and normalized to cell capacitance. […]", "data": [{"molecule": "C1a: rat Kv2.1 C1a peptide, residues 411-522 of SEQ ID NO: 3, expressed from a plasmid (protein, listed as Rattus norvegicus) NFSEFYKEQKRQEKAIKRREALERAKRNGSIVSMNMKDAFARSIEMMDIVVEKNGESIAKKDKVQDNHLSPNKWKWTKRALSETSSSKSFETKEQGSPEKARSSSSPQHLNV", "values": [{"measurement": "effect on DTDP-induced enhancement of K+ current densities", "setting": "cortical neurons transfected with C1a-expressing plasmid, 30 μM DTDP 10 min, +10 mV step", "result": "failed to exhibit the enhanced K^+ current densities normally elicited by DTDP"}, {"measurement": "effect on non-apoptotic, basal delayed-rectifier K+ currents", "setting": "cortical neurons, without DTDP", "result": "had no effect"}]}]}
